Laboratory results published in patent publication US20100317830A1, “BACE455, AN ALTERNATIVE SPLICE VARIANT OF THE HUMAN BETA-SECRETASE” (EXONHIT THERAPEUTICS SA, priority 2003, published 2010).

Experiments:
[1] = tested on: endogenously expressed APP in SH-SY5Y cells; assay: Aβ1-40 double antibody sandwich ELISA on conditioned medium of transfected SH-SY5Y cells; type: cell-based, human; conditions: SH-SY5Y cells transfected with BACE construct; control = empty vector, set as 100%
Protocol: Cells were harvested 3 days after plating and processed for Western Blotting experiments as described above.
Cell culture supernatants harvested 72 hours after plating were analyzed in a standard double antibody isoform-specific Aβ1-40 ELISA (BioSource International) as follows. […] The detecting antibody is specific for Abeta 1-40 and the conjugated secondary antibody is an anti-rabbit IgG conjugated to horseradish peroxydase. Synthetic human Aβ1-40 standard peptides are serially diluted in the supplied sample diluent for the generation of standard curves.
Human Abeta 1-40 standards were added after washing the plate, as well as 100 μl/well of sample, e.g., conditioned medium of transfected cells. The plate was incubated at 4[deg.] C. overnight. The next day, after washing the plate four times, 100 μl/well rabbit detection antibody was added and incubated for 2 hours on an orbital plate shaker at 20 degree C. […] 100 μl/well stop solution was added and absorbance of each well was read at 450 nm within two hours, with a solution of 100 μl each of chromogen and stop solution as the blank. […] The samples with absorbance values falling within the standard curve were extrapolated (by comparison to the values obtained for the A-β40 and A-β42 standard peptides analyzed on the same plate) from the standard curves and expressed in pg/ml culture medium.

[2] = tested on: endogenously expressed APP isoforms in SH-SY5Y cells; assay: Western blot of C99 fragment generation in transfected SH-SY5Y cells; type: cell-based, human
Protocol: SH-SY5Y cells for transfection were grown to 80% confluence in Dulbecco's modified Eagle's medium (DMEM) with 10% fetal bovine serum. Transfections were performed using LipofectAmine Plus (Gibco-BRL) with […] per 10*10<6>cells. Three days posttransfection, cells were passaged into medium containing G418 at a concentration of 400 μg/ml. After twenty days growth in selective medium, individual clones were selected and plated into each well of one 96 well plate containing growth medium plus G418. Clones were expanded from the 96 well plate to a 24 well plate and then to a 6 well plate. Clones which had lost initial neuronal-like morphology were not amplified. BACE455 or BACE501 expression in selected clones was assayed by Western Blotting and immunohistochemical analysis using Cterminal-specific antibody.
Cells were harvested 3 days after plating. Cells were washed twice with PBS and lysed in 1 ml CellLytic solution (Sigma) plus protease inhibitors cocktail (Roche Diagnostics) for 15 min. […] Following electrotransfer of the separated polypeptides to PVDF membranes, APP and C99 proteolytic fragment were detected with C-terminal-specific rabbit anti-APP antibody (Serotec, UK) at 1/500 in PBS-Tween 20 0.1%, and the antibody-antigen complexes were visualized using alkaline phosphatase conjugated goat anti-rabbit antibodies (1/5000). […]

Molecule | Aβ release (% of control) [1] | C99 production ([2]; SH-SY5Y cells transformed with the BACE455 construct vs empty vector) | APP levels ([2]; overexpression of BACE455 in SH-SY5Y cells)
BACE455: new isoform of human beta-secretase (BACE) lacking exon 4, 455 amino acid residues, SEQ ID NO: 2 (protein, listed as Homo sapiens) MAQALPWLLLWMGAGVLPAHGTQHGIRLPLRSGLGGAPLGLRLPRETDEEPEEPGRRGSFVEMVDNLRGKSGQGYYVEMTVGSPPQTLNILVDTGSSNFAVGAAPHPFLHRYYQRQLSSTYRDLRKGVYVPYTQGKWEGELGTDLVSIPHGPNVTVRANIAAITESDKFFINGSNWEGILGLAYAEIARIIGGIDHSLYTGSLWYTPIRREWYYEVIIVRVEINGQDLKMDCKEYNYDKSIVDSGTTNLRLPKKVFEAAVKSIKAASSTEKFPDGFWLGEQLVCWQAGTTPWNIFPVISLYLMGEVTNQSFRITILPQQYLRPVEDVATSQDDCYKFAISQSSTGTVMGAVIMEGFYVVFDRARKRIGFAVSACHVHDEFRTAAVEGPFVTLDMEDCGYNIPQTDESTLMTIAYVMAAICALFMLPLCLMVCQWRCLRCLRQQHDDFADDISLLK | 199.95+18 % of control | strongly increased | no influence
BACE501: native full-length human BACE isoform (variant a), NM_012104 (protein, UniProt P56817 1-501, looked up, full-length, native full-length human BACE isoform (variant a), NM_012104) MAQALPWLLLWMGAGVLPAHGTQHGIRLPLRSGLGGAPLGLRLPRETDEEPEEPGRRGSFVEMVDNLRGKSGQGYYVEMTVGSPPQTLNILVDTGSSNFAVGAAPHPFLHRYYQRQLSSTYRDLRKGVYVPYTQGKWEGELGTDLVSIPHGPNVTVRANIAAITESDKFFINGSNWEGILGLAYAEIARPDDSLEPFFDSLVKQTHVPNLFSLQLCGAGFPLNQSEVLASVGGSMIIGGIDHSLYTGSLWYTPIRREWYYEVIIVRVEINGQDLKMDCKEYNYDKSIVDSGTTNLRLPKKVFEAAVKSIKAASSTEKFPDGFWLGEQLVCWQAGTTPWNIFPVISLYLMGEVTNQSFRITILPQQYLRPVEDVATSQDDCYKFAISQSSTGTVMGAVIMEGFYVVFDRARKRIGFAVSACHVHDEFRTAAVEGPFVTLDMEDCGYNIPQTDESTLMTIAYVMAAICALFMLPLCLMVCQWRCLRCLRQQHDDFADDISLLK | 193.15 ± 2.73 % of control |  | 
